Data on eight molecules can be found in US11597951B2 (Lygos, Inc., priority 2018, dated 2023).

One assay concerns E. coli strain K12. Briefly: In vivo production of malonate in E. coli using S. cerevisiae EHD3 malonyl-CoA hydrolases. Type of assay: cell-based. The following applies: for Malonate Concentration: E. coli K12, M9 minimal medium, 30° C., 48 hours, mean±std dev, n=3; for malonate production relative to wild-type EHD3: E. coli K12, 48 hours. How it is done:
This example describes the host cells and culture conditions resulting in the in vivo production of malonate using a heterologous EHD3 malonyl-CoA hydrolase in an E. coli host cell. E. coli strain K12 was transformed with vectors containing wild-type EHD3, EHD3 (E124A), […], EHD3 (E124S), EHD3 (E124A, E308V) or an empty vector negative control. Transformants were streaked on LB agar plates (Cm^50, 2% glucose). Following overnight growth at 37° C., individual colonies were inoculated into 3 ml LB (Cm^50, 2% glucose) in a 48-well plate. Cultures were incubated on a plate shaker at 37° C. for 6 hours, at which point each culture was inoculated 1% v/v into M9 minimal medium supplemented with Cm^50 and a mixed carbon source (0.5% glycerol, 0.05% glucose, 0.2% lactose) in a 48-well plate. Cultures were incubated on a plate shaker at 30° C., and a 500 μL sample of the fermentation broth was removed for analysis after 48 hours incubation.
Samples were centrifuged (×6000 g, 1 min) and the supernatant analyzed for malonate quantification. Chemical standards were prepared in […] of water. The separation of malonate was conducted on a Shimadzu Prominence XR UPLC connected to a refractive index detector and UV detector monitoring 210 nm. Product separation was performed on a Bio-Rad Fermentation Monitoring column. The UPLC was programmed to run isocratically using 5 mM H2504 as the eluant with a flow rate of 600 μL per minute. 10 μL were injected per sample, and the sample plate temperature was held at 4° C. Malonate standards began eluting at […]. […] Malonate concentrations (mg/1) were calculated by comparison to a standard curve prepared from authentic malonate.

For another assay, the system named is S. cerevisiae. Briefly: Production of malonate in yeast expressing engineered FabD malonyl CoA:ACP transacylase. Type of assay: cell-based. The source says:
In this example, FabD from E. coli, a malonyl CoA:ACP transacylase (EC 2.3.1.39) having one or more of the following amino acid changes at the indicated positions: C92, H201, N201, D117, E117, N117, Y117, G117, H117, Q11, D11, Ell, N11, Y11, G11, H11, A93, V93, I93, F93, S93, G93 was employed as a malonyl-CoA hydrolase. The nucleic acid encoding E. coli FabD was PCR amplified from E. coli strain K12 using primer F1 (5′-[…]-3′) (SEQ ID NO: 43) and F2 (5′-[…]-3′) (SEQ ID NO: 44). The amplified gene was then mutated using standard methods and inserted into a shuttle expression plasmid under the control of the TEF1 promoter and upstream of the CYC1 terminator. This vector contains an ampicillin resistance cassette, a PMB1 origin of replication, a CEN/ARS origin of replication, and a URA3 selection marker. The individual mutational combinations assayed are listed with the results below.
Individual colonies were inoculated into 1 ml of yeast fermentation media comprising 5 g/L ammonium sulfate, 1 g/L monopotassium phosphate, 0.5 g/L magnesium sulfate, 0.1 g/L sodium chloride, 0.1 g/L calcium chloride, 2 mg/L inositol, 0.5 mg/L boric acid, 0.4 mg/L calcium pentothenate, 0.4 mg/L niacin, 0.4 mg/L pyridoxine hydrochloride, 0.4 mg/L thiamine HCl, 0.4 mg/L zinc sulfate, 0.4 mg/L manganese sulfate, 0.2 mg/L p-aminobenzoic acid, 0.2 mg/L riboflavin, 0.2 mg/L sodium molybdate, 0.2 mg/L ferric chloride, 0.1 mg/L potassium iodide, 40 μg/L copper sulfate, 2 μg/L folic acid, 2 μg/L biotin, 10 mg/L adenine, 50 mg/L L-arginine HCl, 80 mg/L L-aspartic acid, 20 mg/L L-histidine HCl, 50 mg/L L-isoleucine, 100 mg/L L-leucine, 50 mg/L L-lysine HCl, 20 mg/L methionine, 50 mg/L L-phenylalanine, 100 mg/L L-threonine, 50 mg/L L-tryptophan, 50 mg/L L-tyrosine, and 140 mg/L L-valine (the base media) containing 2% glucose as a carbon source. The cultures were incubated on a shaker at 30° C. for 24 h, and 20 μl of these cultures were used to inoculate production cultures of 2 ml of the same media. The production cultures were covered with a breathable membrane, incubated with shaking at 30° C. and sampled for HPLC analysis of product accumulation after 96 h and 168 h of growth.

Take “Wild-type EHD3: wild type S. cerevisiae EHD3 acyl-CoA hydrolase, SEQ ID NO:1”: in the assay on E. coli strain K12, the “Malonate Concentration” value was found to be 6.0 ± 0.2 mg/L.

B1: FabD S92C/L93V/R117H: engineered E. coli FabD malonyl CoA:ACP transacylase with S92C/L93V/R117H (protein, UniProt P0AAI9 2-309, looked up, variant S92C L93V R117H)
Malonyl CoA-acyl carrier …: TQFAFVFPGQGSQTVGMLADMAASYPIVEETFAEASAALGYDLWALTQQGPAEELNKTWQTQPALLTASVALYRVWQQQGGKAPAMMAGHCVGEYSALVCAGVIDFADAVRLVEMHGKFMQEAVPEGTGAMAAIIGLDDASIAKACEEAAEGQVVSPVNFNSPGQVVIAGHKEAVERAGAACKAAGAKRALPLPVSVPSHCALMKPAADKLAVELAKITFNAPTVPVVNNVDVKCETNGDAIRDALVRQLYNPVQWTKSVEYMAAQGVEHLYEVGPGKVLTGLTKRIVDTLTASALNEPSAMAAALEL
For the molecule B1, the Malonate accumulation in the assay on S. cerevisiae (96 h of fermentation) is 1.01 mM; in the assay with S. cerevisiae (168 h of fermentation), 2.49 mM.

B2: FabD L93I/R117Y: engineered E. coli FabD malonyl CoA:ACP transacylase with L93I/R117Y (protein, UniProt P0AAI9 2-309, looked up, variant L93I R117Y)
Malonyl CoA-acyl carrier …: TQFAFVFPGQGSQTVGMLADMAASYPIVEETFAEASAALGYDLWALTQQGPAEELNKTWQTQPALLTASVALYRVWQQQGGKAPAMMAGHSIGEYSALVCAGVIDFADAVRLVEMYGKFMQEAVPEGTGAMAAIIGLDDASIAKACEEAAEGQVVSPVNFNSPGQVVIAGHKEAVERAGAACKAAGAKRALPLPVSVPSHCALMKPAADKLAVELAKITFNAPTVPVVNNVDVKCETNGDAIRDALVRQLYNPVQWTKSVEYMAAQGVEHLYEVGPGKVLTGLTKRIVDTLTASALNEPSAMAAALEL
For B2, the Malonate accumulation in the assay with S. cerevisiae (96 h of fermentation) was 1.64 mM; with S. cerevisiae (168 h of fermentation), 3.47 mM.

B3: FabD L931/R117Y: engineered E. coli FabD malonyl CoA:ACP transacylase variant, printed L931/R117Y (protein, UniProt P0AAI9 2-309, looked up, variant L93I R117Y)
Malonyl CoA-acyl carrier …: TQFAFVFPGQGSQTVGMLADMAASYPIVEETFAEASAALGYDLWALTQQGPAEELNKTWQTQPALLTASVALYRVWQQQGGKAPAMMAGHSIGEYSALVCAGVIDFADAVRLVEMYGKFMQEAVPEGTGAMAAIIGLDDASIAKACEEAAEGQVVSPVNFNSPGQVVIAGHKEAVERAGAACKAAGAKRALPLPVSVPSHCALMKPAADKLAVELAKITFNAPTVPVVNNVDVKCETNGDAIRDALVRQLYNPVQWTKSVEYMAAQGVEHLYEVGPGKVLTGLTKRIVDTLTASALNEPSAMAAALEL
B3: the values for the Malonate accumulation in the assay on S. cerevisiae (96 h of fermentation) and with S. cerevisiae (168 h of fermentation) were 1.47 mM and 2.48 mM, respectively.

B4: FabD L93S/R117G: engineered E. coli FabD malonyl CoA:ACP transacylase with L93S/R117G (protein, UniProt P0AAI9 2-309, looked up, variant L93S R117G)
Malonyl CoA-acyl carrier …: TQFAFVFPGQGSQTVGMLADMAASYPIVEETFAEASAALGYDLWALTQQGPAEELNKTWQTQPALLTASVALYRVWQQQGGKAPAMMAGHSSGEYSALVCAGVIDFADAVRLVEMGGKFMQEAVPEGTGAMAAIIGLDDASIAKACEEAAEGQVVSPVNFNSPGQVVIAGHKEAVERAGAACKAAGAKRALPLPVSVPSHCALMKPAADKLAVELAKITFNAPTVPVVNNVDVKCETNGDAIRDALVRQLYNPVQWTKSVEYMAAQGVEHLYEVGPGKVLTGLTKRIVDTLTASALNEPSAMAAALEL
On to B4, for which the figures for the Malonate accumulation with S. cerevisiae (96 h of fermentation) and in the assay on S. cerevisiae (168 h of fermentation) were 1.11 mM and 2.89 mM, respectively.

B5: EHD3 (E124V): S. cerevisiae EHD3 with point mutation E124V, malonyl-CoA hydrolase (protein, UniProt P28817 1-500, looked up, variant E124V)
Small ribosomal subunit …: MLRNTLKCAQLSSKYGFKTTTRTFMTTQPQLNVTDAPPVLFTVQDTARVITLNRPKKLNALNAEMSESMFKTLNEYAKSDTTNLVILKSSNRPRSFCAGGDVATVAIFNFNKEFAKSIKFFTDVYSLNFQIATYLKPIVTFMDGITMGGGVGLSIHTPFRIATENTKWAMPEMDIGFFPDVGSTFALPRIVTLANSNSQMALYLCLTGEVVTGADAYMLGLASHYVSSENLDALQKRLGEISPPFNNDPQSAYFFGMVNESIDEFVSPLPKDYVFKYSNEKLNVIEACFNLSKNGTIEDIMNNLRQYEGSAEGKAFAQEIKTKLLTKSPSSLQIALRLVQENSRDHIESAIKRDLYTAANMCMNQDSLVEFSEATKHKLIDKQRVPYPWTKKEQLFVSQLTSITSPKPSLPMSLLRNTSNVTWTQYPYHSKYQLPTEQEIAAYIEKRTNDDTGAKVTEREVLNHFANVIPSRRGKLGIQSLCKIVCERKCEEVNDGLRWK
With B5, in the assay on E. coli strain K12, the “malonate production relative to wild-type EHD3” value was “decreased production of malonate” and the “Malonate Concentration” value came to 0.28 ± 0.03 mg/L.

B6: EHD3 (E124A): S. cerevisiae EHD3 with point mutation E124A, malonyl-CoA hydrolase (protein, UniProt P28817 1-500, looked up, variant E124A)
Small ribosomal subunit …: MLRNTLKCAQLSSKYGFKTTTRTFMTTQPQLNVTDAPPVLFTVQDTARVITLNRPKKLNALNAEMSESMFKTLNEYAKSDTTNLVILKSSNRPRSFCAGGDVATVAIFNFNKEFAKSIKFFTDAYSLNFQIATYLKPIVTFMDGITMGGGVGLSIHTPFRIATENTKWAMPEMDIGFFPDVGSTFALPRIVTLANSNSQMALYLCLTGEVVTGADAYMLGLASHYVSSENLDALQKRLGEISPPFNNDPQSAYFFGMVNESIDEFVSPLPKDYVFKYSNEKLNVIEACFNLSKNGTIEDIMNNLRQYEGSAEGKAFAQEIKTKLLTKSPSSLQIALRLVQENSRDHIESAIKRDLYTAANMCMNQDSLVEFSEATKHKLIDKQRVPYPWTKKEQLFVSQLTSITSPKPSLPMSLLRNTSNVTWTQYPYHSKYQLPTEQEIAAYIEKRTNDDTGAKVTEREVLNHFANVIPSRRGKLGIQSLCKIVCERKCEEVNDGLRWK
As to B6, in the assay on E. coli strain K12, the “malonate production relative to wild-type EHD3” value was “only a minor increase” and the “Malonate Concentration” value came to 7.6 ± 0.7 mg/L.

B7: EHD3 (E124A/E308V): S. cerevisiae EHD3 with mutations E124A and E308V, malonyl-CoA hydrolase (protein, UniProt P28817 1-500, looked up, variant E124A E308V)
Small ribosomal subunit …: MLRNTLKCAQLSSKYGFKTTTRTFMTTQPQLNVTDAPPVLFTVQDTARVITLNRPKKLNALNAEMSESMFKTLNEYAKSDTTNLVILKSSNRPRSFCAGGDVATVAIFNFNKEFAKSIKFFTDAYSLNFQIATYLKPIVTFMDGITMGGGVGLSIHTPFRIATENTKWAMPEMDIGFFPDVGSTFALPRIVTLANSNSQMALYLCLTGEVVTGADAYMLGLASHYVSSENLDALQKRLGEISPPFNNDPQSAYFFGMVNESIDEFVSPLPKDYVFKYSNEKLNVIEACFNLSKNGTIEDIMNNLRQYVGSAEGKAFAQEIKTKLLTKSPSSLQIALRLVQENSRDHIESAIKRDLYTAANMCMNQDSLVEFSEATKHKLIDKQRVPYPWTKKEQLFVSQLTSITSPKPSLPMSLLRNTSNVTWTQYPYHSKYQLPTEQEIAAYIEKRTNDDTGAKVTEREVLNHFANVIPSRRGKLGIQSLCKIVCERKCEEVNDGLRWK
On to B7, for which the “Malonate Concentration” value with E. coli strain K12 worked out at 8.35 ± 2.5 mg/L.
